Km and kcat data for one protein are collected here from article PMC8594881.

Common to all, as to format: biochemical, Streptomyces melanosporofaciens
Substrate in series [1]: CC(C)=CCC/C(C)=C/COP(=O)(O)OP(=O)(O)O
Description: steady-state kinetics. Conditions: prenylation; saturating indole as co-substrate; Mg2+-dependent.

Substrate in series [2]: c1ccc2[nH]ccc2c1
Description: steady-state kinetics. Conditions: prenylation acceptor; saturating GPP as co-substrate; Mg2+-dependent.

Substrate in series [3]: CC(C)=CCC/C(C)=C/CC/C(C)=C/CC/C(C)=C/COP(=O)(O)OP(=O)(O)O
Put plainly: steady-state kinetics, nonlinear fit of initial velocities. Conditions: cyclization reaction; Mg2+-dependent.

For orientation: Km means the substrate concentration at which the rate is half of its maximum.

B1: cyclooctat-9-en-7-ol synthase (CotB2) (Streptomyces melanosporofaciens) (protein)
chain: MTTGLSTAGAQDIGRSSVRPYLEECTRRFQEMFDRHVVTRPTKVELTDAELREVIDDCNAAVAPLGKTVSDERWISYVGVVLWSQSPRHIKDMEAFKAVCVLNCVTFVWDDMDPALHDFGLFLPQLRKICEKYYGPEDAEVAYEAARAFVTSDHMFRDSPIKAALCTTSPEQYFRFRVTDIGVDFWMKMSYPIYRHPEFTEHAKTSLAARMTTRGLTIVNDFYSYDREVSLGQITNCFRLCDVSDETAFKEFFQARLDDMIEDIECIKAFDQLTQDVFLDLIYGNFVWTTSNKRYKTAVNDVNSRIQ
Turning to B1, the Km in “steady-state kinetics [1]” was found to be 390 ± 20 µM; in the series “steady-state kinetics [2]”, 290 ± 60 µM; in series [3], 43 ± 6 µM. Also, in series [3], the kcat entry is given as “(6.7 ± 0.3) × 10^−3 s^−1”.
